Source: patent publication US20260217779

Assays:
[1] = target: T1, hCXCL11-G1T4k.one//VHn-G1T4h.one.H435R
T1 chain 1: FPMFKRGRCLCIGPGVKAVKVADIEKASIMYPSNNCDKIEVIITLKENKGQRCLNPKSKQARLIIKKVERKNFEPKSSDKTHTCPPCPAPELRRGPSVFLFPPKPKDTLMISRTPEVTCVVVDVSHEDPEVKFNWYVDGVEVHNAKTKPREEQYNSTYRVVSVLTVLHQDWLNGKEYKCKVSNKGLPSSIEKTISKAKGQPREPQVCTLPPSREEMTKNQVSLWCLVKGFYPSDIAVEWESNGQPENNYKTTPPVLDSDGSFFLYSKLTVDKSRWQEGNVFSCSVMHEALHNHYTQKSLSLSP
T1 chain 2: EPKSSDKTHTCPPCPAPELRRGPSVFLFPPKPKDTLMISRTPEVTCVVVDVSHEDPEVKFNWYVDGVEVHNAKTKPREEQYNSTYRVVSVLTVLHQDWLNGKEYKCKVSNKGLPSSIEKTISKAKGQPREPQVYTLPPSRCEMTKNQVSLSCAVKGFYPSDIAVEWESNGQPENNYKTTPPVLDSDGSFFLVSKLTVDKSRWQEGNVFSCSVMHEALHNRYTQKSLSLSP

[2] = target: T2, hCXCL11.0022-G1T4k.one//VHn-G1T4h.one.H435R
T2 chain 1: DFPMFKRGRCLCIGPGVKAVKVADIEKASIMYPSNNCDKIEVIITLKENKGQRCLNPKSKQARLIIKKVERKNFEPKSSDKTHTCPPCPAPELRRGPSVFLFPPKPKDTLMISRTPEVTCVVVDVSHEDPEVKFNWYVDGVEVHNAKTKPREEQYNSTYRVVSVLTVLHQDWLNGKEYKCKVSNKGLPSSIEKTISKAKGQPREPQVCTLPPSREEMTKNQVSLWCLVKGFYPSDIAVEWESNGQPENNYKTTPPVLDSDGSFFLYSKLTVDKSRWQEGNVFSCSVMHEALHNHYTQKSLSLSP
T2 chain 2: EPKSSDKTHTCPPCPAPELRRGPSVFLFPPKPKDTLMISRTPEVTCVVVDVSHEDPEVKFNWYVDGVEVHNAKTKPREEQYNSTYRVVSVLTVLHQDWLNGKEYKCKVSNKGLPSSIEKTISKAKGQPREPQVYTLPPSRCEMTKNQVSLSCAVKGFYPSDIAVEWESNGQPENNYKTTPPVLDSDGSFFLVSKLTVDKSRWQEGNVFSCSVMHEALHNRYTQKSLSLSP

[3] = target: T3, hCXCL11.0025-G1T4k.one//VHn-G1T4h.one.H435R
T3 chain 1: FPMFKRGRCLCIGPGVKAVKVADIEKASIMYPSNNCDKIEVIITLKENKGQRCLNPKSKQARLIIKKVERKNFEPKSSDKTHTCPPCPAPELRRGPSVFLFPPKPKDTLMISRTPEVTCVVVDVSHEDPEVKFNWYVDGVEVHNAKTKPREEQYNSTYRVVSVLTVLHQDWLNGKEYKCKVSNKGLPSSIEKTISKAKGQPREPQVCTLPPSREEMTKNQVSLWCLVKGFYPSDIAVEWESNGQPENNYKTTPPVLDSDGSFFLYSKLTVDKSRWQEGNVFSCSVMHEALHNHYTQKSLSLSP
T3 chain 2: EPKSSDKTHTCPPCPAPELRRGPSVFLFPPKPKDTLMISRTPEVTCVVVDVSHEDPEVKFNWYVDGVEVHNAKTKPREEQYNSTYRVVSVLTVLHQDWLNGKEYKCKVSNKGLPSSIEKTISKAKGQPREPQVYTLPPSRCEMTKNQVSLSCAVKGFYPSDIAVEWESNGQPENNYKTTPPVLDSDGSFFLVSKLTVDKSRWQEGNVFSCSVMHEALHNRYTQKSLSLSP

[4] = target: T4, hCXCL11.0031-G1T4k.one//VHn-G1T4h.one.H435R
T4 chain 1: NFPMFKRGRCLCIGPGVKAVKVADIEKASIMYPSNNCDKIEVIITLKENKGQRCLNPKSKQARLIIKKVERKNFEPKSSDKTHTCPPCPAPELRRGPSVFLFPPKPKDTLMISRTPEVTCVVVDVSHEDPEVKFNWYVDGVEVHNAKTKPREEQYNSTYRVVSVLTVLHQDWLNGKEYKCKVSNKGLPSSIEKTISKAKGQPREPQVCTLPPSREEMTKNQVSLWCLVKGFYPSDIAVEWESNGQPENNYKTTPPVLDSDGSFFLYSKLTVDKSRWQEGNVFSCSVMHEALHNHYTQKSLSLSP
T4 chain 2: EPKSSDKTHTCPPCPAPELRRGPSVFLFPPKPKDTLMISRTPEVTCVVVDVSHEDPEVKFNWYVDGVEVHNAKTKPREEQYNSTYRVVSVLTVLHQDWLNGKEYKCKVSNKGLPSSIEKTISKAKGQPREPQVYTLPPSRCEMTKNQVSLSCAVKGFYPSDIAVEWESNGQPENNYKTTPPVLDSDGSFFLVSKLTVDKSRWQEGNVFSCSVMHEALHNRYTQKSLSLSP

[5] = target: T5, hCXCL11.0039-G1T4k.one//VHn-G1T4h.one.H435R
T5 chain 1: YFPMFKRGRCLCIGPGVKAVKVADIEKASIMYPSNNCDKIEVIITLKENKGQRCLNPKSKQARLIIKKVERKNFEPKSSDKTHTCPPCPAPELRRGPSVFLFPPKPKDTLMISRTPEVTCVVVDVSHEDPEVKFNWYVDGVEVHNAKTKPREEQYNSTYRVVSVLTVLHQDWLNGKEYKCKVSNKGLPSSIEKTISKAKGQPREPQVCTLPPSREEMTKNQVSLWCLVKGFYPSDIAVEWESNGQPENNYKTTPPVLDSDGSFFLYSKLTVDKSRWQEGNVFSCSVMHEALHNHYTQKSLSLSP
T5 chain 2: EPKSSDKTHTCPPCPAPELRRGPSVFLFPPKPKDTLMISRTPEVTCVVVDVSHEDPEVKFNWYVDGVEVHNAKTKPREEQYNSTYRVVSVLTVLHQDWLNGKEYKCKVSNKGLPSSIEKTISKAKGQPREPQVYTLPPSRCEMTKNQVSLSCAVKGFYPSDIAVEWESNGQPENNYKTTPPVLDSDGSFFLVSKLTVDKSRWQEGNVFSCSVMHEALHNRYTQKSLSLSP

[6] = target: T6, hITIP0021-G1T4k.one//VHn-G1T4h.one.H435R
T6 chain 1: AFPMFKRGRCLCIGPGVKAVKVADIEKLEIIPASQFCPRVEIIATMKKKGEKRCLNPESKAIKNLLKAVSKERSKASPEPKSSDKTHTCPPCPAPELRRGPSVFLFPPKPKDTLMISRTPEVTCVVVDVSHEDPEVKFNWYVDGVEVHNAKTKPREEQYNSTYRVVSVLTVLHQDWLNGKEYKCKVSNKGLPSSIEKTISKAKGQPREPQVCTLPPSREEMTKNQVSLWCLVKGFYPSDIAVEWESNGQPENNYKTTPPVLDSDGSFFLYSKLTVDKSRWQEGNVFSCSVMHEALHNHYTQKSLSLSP
T6 chain 2: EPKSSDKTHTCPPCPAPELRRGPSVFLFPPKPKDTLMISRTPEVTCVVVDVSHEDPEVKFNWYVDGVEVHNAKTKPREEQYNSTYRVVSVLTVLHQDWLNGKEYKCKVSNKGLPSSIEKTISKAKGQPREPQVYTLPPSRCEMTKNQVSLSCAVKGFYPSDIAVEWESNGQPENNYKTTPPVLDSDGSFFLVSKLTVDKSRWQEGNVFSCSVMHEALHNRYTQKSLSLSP

[7] = target: T7, hITIP0022-G1T4k.one//VHn-G1T4h.one.H435R
T7 chain 1: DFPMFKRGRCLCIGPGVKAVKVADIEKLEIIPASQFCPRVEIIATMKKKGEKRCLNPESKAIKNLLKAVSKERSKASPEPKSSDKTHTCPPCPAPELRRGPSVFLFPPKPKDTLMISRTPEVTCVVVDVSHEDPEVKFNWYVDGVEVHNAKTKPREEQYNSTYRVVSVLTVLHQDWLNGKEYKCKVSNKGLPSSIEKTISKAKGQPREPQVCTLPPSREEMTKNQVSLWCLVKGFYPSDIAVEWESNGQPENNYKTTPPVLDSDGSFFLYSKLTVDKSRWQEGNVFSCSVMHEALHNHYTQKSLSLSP
T7 chain 2: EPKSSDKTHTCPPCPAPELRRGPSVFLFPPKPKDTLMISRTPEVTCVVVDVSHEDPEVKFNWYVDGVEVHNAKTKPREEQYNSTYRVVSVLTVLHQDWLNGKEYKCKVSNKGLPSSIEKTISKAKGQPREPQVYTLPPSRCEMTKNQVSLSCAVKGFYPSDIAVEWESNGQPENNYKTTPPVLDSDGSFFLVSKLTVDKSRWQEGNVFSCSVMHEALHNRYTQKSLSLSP

[8] = target: T8, hITIP0030-G1T4k.one//VHn-G1T4h.one.H435R
T8 chain 1: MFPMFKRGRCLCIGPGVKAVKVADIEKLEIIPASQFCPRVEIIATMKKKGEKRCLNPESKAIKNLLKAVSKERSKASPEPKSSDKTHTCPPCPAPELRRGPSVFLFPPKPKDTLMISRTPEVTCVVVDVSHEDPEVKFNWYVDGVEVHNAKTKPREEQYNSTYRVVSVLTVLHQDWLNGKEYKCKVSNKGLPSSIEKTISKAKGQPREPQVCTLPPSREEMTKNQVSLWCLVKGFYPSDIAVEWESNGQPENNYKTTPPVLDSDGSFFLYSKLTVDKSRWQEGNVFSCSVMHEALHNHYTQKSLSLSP
T8 chain 2: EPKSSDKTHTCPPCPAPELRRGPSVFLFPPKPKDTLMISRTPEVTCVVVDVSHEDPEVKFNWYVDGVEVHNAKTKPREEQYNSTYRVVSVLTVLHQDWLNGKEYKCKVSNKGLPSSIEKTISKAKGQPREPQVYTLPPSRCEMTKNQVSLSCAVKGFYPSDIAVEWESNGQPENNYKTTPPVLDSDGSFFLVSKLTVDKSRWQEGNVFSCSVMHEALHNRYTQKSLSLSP

B1: human dipeptidyl peptidase IV (human DPPIV, hDPPIV) (Biolegend, 764102) (protein)
chain: NKGTDDATADSRKTYTLTDYLKNTYRLKLYSLRWISDHEYLYKQENNILVFNAEYGNSSVFLENSTFDEFGHSINDYSISPDGQFILLEYNYVKQWRHSYTASYDIYDLNKRQLITEERIPNNTQWVTWSPVGHKLAYVWNNDIYVKIEPNLPSYRITWTGKEDIIYNGITDWVYEEEVFSAYSALWWSPNGTFLAYAQFNDTEVPLIEYSFYSDESLQYPKTVRVPYPKAGAVNPTVKFFVVNTDSLSSVTNATSIQITAPASMLIGDHYLCDVTWATQERISLQWLRRIQNYSVMDICDYDESSGRWNCLVARQHIEMSTTGWVGRFRPSEPHFTLDGNSFYKIISNEEGYRHICYFQIDKKDCTFITKGTWEVIGIEALTSDYLYYISNEYKGMPGGRNLYKIQLSDYTKVTCLSCELNPERCQYYSVSFSKEAKYYQLRCSGPGLPLYTLHSSVNDKGLRVLEDNSALDKMLQNVQMPSKKLDFIILNETKFWYQMILPPHFDKSKKYPLLLDVYAGPCSQKADTVFRLNWATYLASTENIIVASFDGRGSGYQGDKIMHAINRRLGTFEVEDQIEAARQFSKMGFVDNKRIAIWGWSYGGYVTSMVLGSGSGVFKCGIAVAPVSRWEYYDSVYTERYMGLPTPEDNLDHYRNSTVMSRAENFKQVEYLLIHGTADDNVHFQQSAQISKALVDVGVDFQAMWYTDEDHGIASSTAHQHIYTHMSHFIKQCFSLP
cleavage by hDPPIV (LC/MS mass) [1]: DPPIV treatment reduced each of the masses
cleavage by hDPPIV (LC/MS mass) [2]: showed no mass change suggestive of peptide bond cleavage by hDPPIV treatment
cleavage by hDPPIV (LC/MS mass) [3]: showed no mass change suggestive of peptide bond cleavage by hDPPIV treatment
cleavage by hDPPIV (LC/MS mass) [4]: showed no mass change suggestive of peptide bond cleavage by hDPPIV treatment
cleavage by hDPPIV (LC/MS mass) [5]: showed no mass change suggestive of peptide bond cleavage by hDPPIV treatment
cleavage by hDPPIV (LC/MS mass) [6]: showed no mass change suggestive of peptide bond cleavage by hDPPIV treatment
cleavage by hDPPIV (LC/MS mass) [7]: showed no mass change suggestive of peptide bond cleavage by hDPPIV treatment
cleavage by hDPPIV (LC/MS mass) [8]: showed no mass change suggestive of peptide bond cleavage by hDPPIV treatment
